# Measurements published in patent US7375083B2, “Pharmaceutical compositions for prevention of overdose or abuse” (Shire LLC, priority 2003, dated 2008).
# Where a SMILES comes first, the peptide text is derived from it. The star is where a group is joined. X1 = COc1ccc2c3c1O[C@H]1C(O*)=CC[C@H]4[C@@H](C2)N(C)CC[C@]314
# Key:
# [1] = Intranasal bioavailability of hydrocodone conjugates in rats, LC/MS/MS; details: intranasal, 1 mg/kg
# [2] = Oral bioavailability of hydrocodone conjugates in rats, LC/MS/MS; details: for AUC (ng/ml h) 0-8 h / Cmax: hydrocodone plus hydromorphone; for Percent HC (AUC) / Percent HC (Cmax): relative to hydrocodone bitartrate; for Percent HC + HM (AUC) / Percent HC + HM (Cmax): relative to parameter following hydrocodone bitartrate
# [3] = oral, 1 mg/kg hydrocodone base content
# [4] = oral, 1 mg/kg hydrocodone base content, 0 h
# [5] = oral, 1 mg/kg hydrocodone base content, 0.1 h
# [6] = oral, 1 mg/kg hydrocodone base content, 1.0 h
# [7] = oral, 1 mg/kg hydrocodone base content, 2.0 h
# [8] = oral, 1 mg/kg hydrocodone base content, 4.0 h
# [9] = oral, 2 mg/kg hydrocodone base content
# [10] = oral, 2 mg/kg hydrocodone base content, 0 h
# [11] = oral, 2 mg/kg hydrocodone base content, 0.1 h
# [12] = oral, 2 mg/kg hydrocodone base content, 0.5 h
# [13] = oral, 2 mg/kg hydrocodone base content, 1.0 h
# [14] = oral, 2 mg/kg hydrocodone base content, 2.0 h
# [15] = oral, 2 mg/kg hydrocodone base content, 4.0 h
# [16] = oral, 5 mg/kg hydrocodone base content
# [17] = oral, 5 mg/kg hydrocodone base content, 0 h
# [18] = oral, 5 mg/kg hydrocodone base content, 0.1 h
# [19] = oral, 5 mg/kg hydrocodone base content, 0.5 h
# [20] = oral, 5 mg/kg hydrocodone base content, 1.0 h
# [21] = oral, 5 mg/kg hydrocodone base content, 2.0 h
# [22] = oral, 5 mg/kg hydrocodone base content, 4.0 h
# [23] = oral, 25 mg/kg hydrocodone base content
# [24] = oral, 25 mg/kg hydrocodone base content, 0 h
# [25] = oral, 25 mg/kg hydrocodone base content, 0.1 h
# [26] = oral, 25 mg/kg hydrocodone base content, 0.5 h
# [27] = oral, 25 mg/kg hydrocodone base content, 1.0 h
# [28] = oral, 25 mg/kg hydrocodone base content, 2.0 h
# [29] = oral, 25 mg/kg hydrocodone base content, 4.0 h
smiles,measurement,setting,value
"CC[C@H](C)[C@H](NC(=O)[C@H](Cc1ccccc1)NC(=O)[C@H](Cc1ccccc1)NC(=O)[C@H](Cc1ccc(O)cc1)NC(=O)[C@@H](N)Cc1ccc(O)cc1)C(=O)OC1=CC[C@H]2[C@H]3Cc4ccc(OC)c5c4[C@@]2(CCN3C)[C@H]1O5 [YYFFI[SEQ ID NO: 8]-HC, Tyr-Tyr-Phe-Phe-Ile[SEQ ID NO: 8]-(6-O)-Hydrocodone] (H-YYFFI-X1)",Mean HC (hydrocodone) concentration,[1]; 0 min,0 ng/mL
same,Mean HC + HM concentration,[1]; 0 min,0 ng/mL
same,Mean HM (hydromorphone) concentration,[1]; 0 min,0 ng/mL
same,Mean HC (hydrocodone) concentration,[1]; 5 min,28 ng/mL
same,Mean HC + HM concentration,[1]; 5 min,28 ng/mL
same,Mean HM (hydromorphone) concentration,[1]; 5 min,bql^3
same,Mean HC (hydrocodone) concentration,[1]; 15 min,27 ng/mL
same,Mean HC + HM concentration,[1]; 15 min,27 ng/mL
same,Mean HM (hydromorphone) concentration,[1]; 15 min,bql^4
same,Mean HC (hydrocodone) concentration,[1]; 30 min,16 ng/mL
same,Mean HC + HM concentration,[1]; 30 min,16 ng/mL
same,Mean HM (hydromorphone) concentration,[1]; 30 min,bql^5
same,Mean HC (hydrocodone) concentration,[1]; 60 min,21 ng/mL
same,Mean HC + HM concentration,[1]; 60 min,21 ng/mL
same,Mean HM (hydromorphone) concentration,[1]; 60 min,bql^6
same,Percent Decrease 1 mg/kg vs. 5 mg/kg AUC,[2]; oral bioavailability,15%
same,Percent Decrease 1 mg/kg vs. 5 mg/kg Cmax,[2]; oral bioavailability,23%
same,hydrocodone plus hydromorphone concentration,"[2]; oral, 1 mg/kg dose, 0.5 Hours",7 ng/mL
same,hydrocodone plus hydromorphone concentration,"[2]; oral, 1 mg/kg dose, 1.0 Hours",3.7 ng/mL
same,hydrocodone plus hydromorphone concentration,"[2]; oral, 1 mg/kg dose, 1.5 Hours",4.3 ng/mL
same,hydrocodone plus hydromorphone concentration,"[2]; oral, 1 mg/kg dose, 3 Hours",1.4 ng/mL
same,hydrocodone plus hydromorphone concentration,"[2]; oral, 1 mg/kg dose, 5 Hours",1.1 ng/mL
same,hydrocodone plus hydromorphone concentration,"[2]; oral, 1 mg/kg dose, 8 Hours",0 ng/mL
same,AUC (ng/ml h) 0-8 h,"[2]; oral, 1 mg/kg dose",14.9 ng·h/mL
same,Cmax,"[2]; oral, 1 mg/kg dose",7 ng/mL
same,Percent HC (AUC),"[2]; oral, 1 mg/kg dose",110%
same,Percent HC (Cmax),"[2]; oral, 1 mg/kg dose",81%
same,Hydrocodone AUC,[2]; [3],26.3
same,Hydrocodone Cmax,[2]; [3],20.3 ng/mL
same,"Hydrocodone plus hydromorphone AUC, Percent HC relative to hydrocodone bitartrate",[2]; [3],64%
same,Hydrocodone plus hydromorphone Cmax,[2]; [3],20.8 ng/mL
same,"Hydrocodone plus hydromorphone Cmax, Percent HC relative to hydrocodone bitartrate",[2]; [3],18%
same,"Hydromorphone AUC, Percent HM relative to hydrocodone bitartrate",[2]; [3],97%
same,Hydromorphone Cmax,[2]; [3],2.9 ng/mL
same,"Hydromorphone Cmax, Percent HM relative to hydrocodone bitartrate",[2]; [3],89%
same,Mean hydrocodone plus hydromorphone concentration,[2]; [4],0 ng/mL
same,Mean hydromorphone concentration,[2]; [4],0 ng/mL
same,Mean hydrocodone concentration,"[2]; oral, 1 mg/kg hydrocodone base content, 0 Hours",0 ng/mL
same,Mean hydrocodone concentration,"[2]; oral, 1 mg/kg hydrocodone base content, 0.1 Hours",20.3 ng/mL
same,Mean hydrocodone concentration,"[2]; oral, 1 mg/kg hydrocodone base content, 0.5 Hours",17.9 ng/mL
same,Mean hydrocodone concentration,"[2]; oral, 1 mg/kg hydrocodone base content, 1.0 Hours",10.4 ng/mL
same,Mean hydrocodone concentration,"[2]; oral, 1 mg/kg hydrocodone base content, 2.0 Hours",2.8 ng/mL
same,Mean hydrocodone concentration,"[2]; oral, 1 mg/kg hydrocodone base content, 4.0 Hours",1.2 ng/mL
same,Mean hydrocodone plus hydromorphone concentration,[2]; [5],20.6 ng/mL
same,Mean hydromorphone concentration,[2]; [5],0.27 ng/mL
same,Mean hydromorphone concentration,"[2]; oral, 1 mg/kg hydrocodone base content, 0.5 h",2.87 ng/mL
same,Mean hydrocodone plus hydromorphone concentration,[2]; [6],12.8 ng/mL
same,Mean hydromorphone concentration,[2]; [6],2.39 ng/mL
same,Mean hydrocodone plus hydromorphone concentration,[2]; [7],5.0 ng/mL
same,Mean hydromorphone concentration,[2]; [7],2.24 ng/mL
same,Mean hydrocodone plus hydromorphone concentration,[2]; [8],2.2 ng/mL
same,Mean hydromorphone concentration,[2]; [8],1.02 ng/mL
same,Percent HC + HM (AUC),"[2]; oral, 1 mg/kg",58%
same,Percent HC + HM (Cmax),"[2]; oral, 1 mg/kg",18%
same,Hydrocodone AUC,[2]; [9],48
same,Hydrocodone Cmax,[2]; [9],35.2 ng/mL
same,"Hydrocodone plus hydromorphone AUC, Percent HC relative to hydrocodone bitartrate",[2]; [9],103%
same,Hydrocodone plus hydromorphone Cmax,[2]; [9],36.3 ng/mL
same,"Hydrocodone plus hydromorphone Cmax, Percent HC relative to hydrocodone bitartrate",[2]; [9],53%
same,"Hydromorphone AUC, Percent HM relative to hydrocodone bitartrate",[2]; [9],61%
same,Hydromorphone Cmax,[2]; [9],8.7 ng/mL
same,"Hydromorphone Cmax, Percent HM relative to hydrocodone bitartrate",[2]; [9],48%
same,Mean hydrocodone plus hydromorphone concentration,[2]; [10],0 ng/mL
same,Mean hydromorphone concentration,[2]; [10],0 ng/mL
same,Mean hydrocodone concentration,"[2]; oral, 2 mg/kg hydrocodone base content, 0 Hours",0 ng/mL
same,Mean hydrocodone concentration,"[2]; oral, 2 mg/kg hydrocodone base content, 0.1 Hours",35.2 ng/mL
same,Mean hydrocodone concentration,"[2]; oral, 2 mg/kg hydrocodone base content, 0.5 Hours",23 ng/mL
same,Mean hydrocodone concentration,"[2]; oral, 2 mg/kg hydrocodone base content, 1.0 Hours",14.4 ng/mL
same,Mean hydrocodone concentration,"[2]; oral, 2 mg/kg hydrocodone base content, 2.0 Hours",9.8 ng/mL
same,Mean hydrocodone concentration,"[2]; oral, 2 mg/kg hydrocodone base content, 4.0 Hours",3.3 ng/mL
same,Mean hydrocodone plus hydromorphone concentration,[2]; [11],36.3 ng/mL
same,Mean hydromorphone concentration,[2]; [11],1.13 ng/mL
same,Mean hydrocodone plus hydromorphone concentration,[2]; [12],31.7 ng/mL
same,Mean hydromorphone concentration,[2]; [12],8.74 ng/mL
same,Mean hydrocodone plus hydromorphone concentration,[2]; [13],18.0 ng/mL
same,Mean hydromorphone concentration,[2]; [13],3.63 ng/mL
same,Mean hydrocodone plus hydromorphone concentration,[2]; [14],13.2 ng/mL
same,Mean hydromorphone concentration,[2]; [14],3.41 ng/mL
same,Mean hydrocodone plus hydromorphone concentration,[2]; [15],4.2 ng/mL
same,Mean hydromorphone concentration,[2]; [15],0.88 ng/mL
same,Percent HC + HM (AUC),"[2]; oral, 2 mg/kg",126%
same,Percent HC + HM (Cmax),"[2]; oral, 2 mg/kg",58%
same,hydrocodone plus hydromorphone concentration,"[2]; oral, 5 mg/kg dose, 0.5 Hours",46 ng/mL
same,hydrocodone plus hydromorphone concentration,"[2]; oral, 5 mg/kg dose, 1.0 Hours",33 ng/mL
same,hydrocodone plus hydromorphone concentration,"[2]; oral, 5 mg/kg dose, 1.5 Hours",34 ng/mL
same,hydrocodone plus hydromorphone concentration,"[2]; oral, 5 mg/kg dose, 3 Hours",13 ng/mL
same,hydrocodone plus hydromorphone concentration,"[2]; oral, 5 mg/kg dose, 5 Hours",8.3 ng/mL
same,hydrocodone plus hydromorphone concentration,"[2]; oral, 5 mg/kg dose, 8 Hours",4.5 ng/mL
same,AUC (ng/ml h) 0-8 h,"[2]; oral, 5 mg/kg dose",105 ng·h/mL
same,Cmax,"[2]; oral, 5 mg/kg dose",46 ng/mL
same,Percent HC (AUC),"[2]; oral, 5 mg/kg dose",86%
same,Percent HC (Cmax),"[2]; oral, 5 mg/kg dose",63%
same,Hydrocodone AUC,[2]; [16],47
same,Hydrocodone Cmax,[2]; [16],26.6 ng/mL
same,Hydrocodone plus hydromorphone Cmax,[2]; [16],32.9 ng/mL
same,"Hydromorphone AUC, Percent HM relative to hydrocodone bitartrate",[2]; [16],51%
same,Hydromorphone Cmax,[2]; [16],10.4 ng/mL
same,"Hydromorphone Cmax, Percent HM relative to hydrocodone bitartrate",[2]; [16],77%
same,Mean hydrocodone plus hydromorphone concentration,[2]; [17],0 ng/mL
same,Mean hydromorphone concentration,[2]; [17],0 ng/mL
same,Mean hydrocodone concentration,"[2]; oral, 5 mg/kg hydrocodone base content, 0 Hours",0 ng/mL
same,Mean hydrocodone concentration,"[2]; oral, 5 mg/kg hydrocodone base content, 0.1 Hours",26.6 ng/mL
same,Mean hydrocodone concentration,"[2]; oral, 5 mg/kg hydrocodone base content, 0.5 Hours",22.5 ng/mL
same,Mean hydrocodone concentration,"[2]; oral, 5 mg/kg hydrocodone base content, 1.0 Hours",15.1 ng/mL
same,Mean hydrocodone concentration,"[2]; oral, 5 mg/kg hydrocodone base content, 2.0 Hours",10.3 ng/mL
same,Mean hydrocodone concentration,"[2]; oral, 5 mg/kg hydrocodone base content, 4.0 Hours",3.6 ng/mL
same,Mean hydrocodone plus hydromorphone concentration,[2]; [18],27.1 ng/mL
same,Mean hydromorphone concentration,[2]; [18],0.49 ng/mL
same,Mean hydrocodone plus hydromorphone concentration,[2]; [19],32.9 ng/mL
same,Mean hydromorphone concentration,[2]; [19],10.41 ng/mL
same,Mean hydrocodone plus hydromorphone concentration,[2]; [20],19.9 ng/mL
same,Mean hydromorphone concentration,[2]; [20],4.82 ng/mL
same,Mean hydrocodone plus hydromorphone concentration,[2]; [21],13.5 ng/mL
same,Mean hydromorphone concentration,[2]; [21],3.17 ng/mL
same,Mean hydrocodone plus hydromorphone concentration,[2]; [22],4.7 ng/mL
same,Mean hydromorphone concentration,[2]; [22],1.07 ng/mL
same,Percent HC + HM (AUC),"[2]; oral, 5 mg/kg",20%
same,Percent HC + HM (Cmax),"[2]; oral, 5 mg/kg",4%
same,Hydrocodone AUC,[2]; [23],135.0
same,Hydrocodone Cmax,[2]; [23],41.4 ng/mL
same,Hydrocodone plus hydromorphone Cmax,[2]; [23],49.4 ng/mL
same,"Hydromorphone AUC, Percent HM relative to hydrocodone bitartrate",[2]; [23],33%
same,Hydromorphone Cmax,[2]; [23],16.2 ng/mL
same,"Hydromorphone Cmax, Percent HM relative to hydrocodone bitartrate",[2]; [23],37%
same,Mean hydrocodone plus hydromorphone concentration,[2]; [24],0 ng/mL
same,Mean hydromorphone concentration,[2]; [24],0 ng/mL
same,Mean hydrocodone concentration,"[2]; oral, 25 mg/kg hydrocodone base content, 0 Hours",0 ng/mL
same,Mean hydrocodone concentration,"[2]; oral, 25 mg/kg hydrocodone base content, 0.1 Hours",41.4 ng/mL
same,Mean hydrocodone concentration,"[2]; oral, 25 mg/kg hydrocodone base content, 0.5 Hours",23.3 ng/mL
same,Mean hydrocodone concentration,"[2]; oral, 25 mg/kg hydrocodone base content, 1.0 Hours",31.0 ng/mL
same,Mean hydrocodone concentration,"[2]; oral, 25 mg/kg hydrocodone base content, 2.0 Hours",43.9 ng/mL
same,Mean hydrocodone concentration,"[2]; oral, 25 mg/kg hydrocodone base content, 4.0 Hours",25.0 ng/mL
same,Mean hydrocodone plus hydromorphone concentration,[2]; [25],49.4 ng/mL
same,Mean hydromorphone concentration,[2]; [25],8.00 ng/mL
same,Mean hydrocodone plus hydromorphone concentration,[2]; [26],33.7 ng/mL
same,Mean hydromorphone concentration,[2]; [26],10.35 ng/mL
same,Mean hydrocodone plus hydromorphone concentration,[2]; [27],43.7 ng/mL
same,Mean hydromorphone concentration,[2]; [27],12.70 ng/mL
same,Mean hydrocodone plus hydromorphone concentration,[2]; [28],60.1 ng/mL
same,Mean hydromorphone concentration,[2]; [28],16.22 ng/mL
same,Mean hydrocodone plus hydromorphone concentration,[2]; [29],34.0 ng/mL
same,Mean hydromorphone concentration,[2]; [29],8.98 ng/mL
same,Percent HC + HM (AUC),"[2]; oral, 25 mg/kg",32%
same,Percent HC + HM (Cmax),"[2]; oral, 25 mg/kg",10%
same,Peak levels and bioavailability,"[2]; rat, oral, 5 mg/kg",substantially decreased
